Measurements as given in PMC2605266.

Key:
[1] = biological target: T1, GST fused to the cytosolic domain of VAMP8 (human); test: pull-down; 5 ug GST fusion protein immobilised on glutathione Sepharose, 5 ug His-tagged Munc18c in 500 ul, overnight at 4 C; binding buffer 150 mM potassium acetate, 1 mM MgCl2, 0.05% Tween 20, 20 mM HEPES pH 7.4; bound Munc18c detected by immunoblot
T1 sequence (Q9BV40 whole entry, looked up): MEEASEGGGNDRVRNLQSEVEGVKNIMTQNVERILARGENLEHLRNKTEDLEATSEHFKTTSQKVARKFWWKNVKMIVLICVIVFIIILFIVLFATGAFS

[2] = biological target: T2, GST fused to the cytosolic domain of VAMP4 (human); test: as above
T2 sequence (O75379 whole entry, looked up): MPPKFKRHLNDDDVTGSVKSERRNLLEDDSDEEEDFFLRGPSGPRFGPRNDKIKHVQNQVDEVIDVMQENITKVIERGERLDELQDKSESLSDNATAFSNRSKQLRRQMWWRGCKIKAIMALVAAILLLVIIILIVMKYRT

B1: Munc18c, N-terminal His6-fusion protein (natural protein)
chain: MAPPVSERGLKSVVWRKIKTAVFDDCRKEGEWKIMLLDEFTTKLLSSCCKMTDLLEEGITVIENIYKNREPVRQMKALYFISPTPKSVDCFLRDFGSKSEKKYKAAYIYFTDFCPDSLFNKIKASCSKSIRRCKEINISFIPQESQVYTLDVPDAFYYCYSPDPSNASRKEVVMEAMAEQIVTVCATLDENPGVRYKSKPLDNASKLAQLVEKKLEDYYKIDEKGLIKGKTQSQLLIIDRGFDPVSTVLHELTFQAMAYDLLPIENDTYKYKTDGKEKEAVLEEDDDLWVRVRHRHIAVVLEEIPKLMKEISSTKKATEGKTSLSALTQLMKKMPHFRKQISKQVVHLNLAEDCMNKFKLNIEKLCKTEQDLALGTDAEGQRVKDSMLVLLPVLLNKNHDNCDKIRAVLLYIFGINGTTEENLDRLIHNVKIEDDSDMIRNWSHLGVPIVPPSQQAKPLRKDRSAEETFQLSRWTPFIKDIMEDAIDNRLDSKEWPYCSRCPAVWNGSGAVSARQKPRTNYLELDRKNGSRLIIFVIGGITYSEMRCAYEVSQAHKSCEVIIGSTHILTPRKLLDDIKMLNKSKDKVSFKDE
[1]
  binding as percent of that observed for VAMP2: < 14%
[2]
  binding as percent of that observed for VAMP2: < 14%
